Test results taken from publication doi:10.1101/2020.12.02.408153 (bioRxiv, 2020).

Biological target: SARS-CoV-2 open reading frame (ORF) 8 (SARS-CoV-2, UniProt P0DTC8 16-121)
Assay: SPR

Chain of SARS-CoV-2 open reading frame (ORF) 8 (P0DTC8 16-121): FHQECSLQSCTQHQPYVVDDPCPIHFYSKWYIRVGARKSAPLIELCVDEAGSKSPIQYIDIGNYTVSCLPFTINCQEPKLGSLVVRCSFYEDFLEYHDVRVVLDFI

B1: LL-37 (peptide)
peptide: LLGDFFRKSKEKIGKEFKRIVQRIKDFLRNLVPRTES
- Kd: 290 nM
